How the values were obtained:
[1] = molecular target: kinesin heavy chain deletion mutant H810 (stop codon after amino acid 810), myc-tagged (rat) (UniProt Q2PQA9); assay: co-IP
[2] = molecular target: taxol-stabilized microtubules (bovine (brain)) (UniProt Q6B856); assay: co-sedimentation
Chain of UniProt Q6B856 (Q6B856 whole entry, looked up): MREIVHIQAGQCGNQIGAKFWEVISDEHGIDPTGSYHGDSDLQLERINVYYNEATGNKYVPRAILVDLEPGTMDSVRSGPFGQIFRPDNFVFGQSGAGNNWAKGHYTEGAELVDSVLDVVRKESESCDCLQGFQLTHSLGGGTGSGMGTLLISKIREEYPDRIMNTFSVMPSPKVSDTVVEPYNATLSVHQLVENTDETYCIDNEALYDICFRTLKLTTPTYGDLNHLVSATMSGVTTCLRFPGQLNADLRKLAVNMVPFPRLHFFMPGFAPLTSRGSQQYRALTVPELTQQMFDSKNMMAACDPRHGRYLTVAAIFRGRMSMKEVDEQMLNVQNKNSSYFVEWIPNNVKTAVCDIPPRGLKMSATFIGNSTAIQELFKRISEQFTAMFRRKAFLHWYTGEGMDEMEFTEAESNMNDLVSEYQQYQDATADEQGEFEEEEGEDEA

Chain of UniProt Q2PQA9 (Q2PQA9 2-963, stated change not applied): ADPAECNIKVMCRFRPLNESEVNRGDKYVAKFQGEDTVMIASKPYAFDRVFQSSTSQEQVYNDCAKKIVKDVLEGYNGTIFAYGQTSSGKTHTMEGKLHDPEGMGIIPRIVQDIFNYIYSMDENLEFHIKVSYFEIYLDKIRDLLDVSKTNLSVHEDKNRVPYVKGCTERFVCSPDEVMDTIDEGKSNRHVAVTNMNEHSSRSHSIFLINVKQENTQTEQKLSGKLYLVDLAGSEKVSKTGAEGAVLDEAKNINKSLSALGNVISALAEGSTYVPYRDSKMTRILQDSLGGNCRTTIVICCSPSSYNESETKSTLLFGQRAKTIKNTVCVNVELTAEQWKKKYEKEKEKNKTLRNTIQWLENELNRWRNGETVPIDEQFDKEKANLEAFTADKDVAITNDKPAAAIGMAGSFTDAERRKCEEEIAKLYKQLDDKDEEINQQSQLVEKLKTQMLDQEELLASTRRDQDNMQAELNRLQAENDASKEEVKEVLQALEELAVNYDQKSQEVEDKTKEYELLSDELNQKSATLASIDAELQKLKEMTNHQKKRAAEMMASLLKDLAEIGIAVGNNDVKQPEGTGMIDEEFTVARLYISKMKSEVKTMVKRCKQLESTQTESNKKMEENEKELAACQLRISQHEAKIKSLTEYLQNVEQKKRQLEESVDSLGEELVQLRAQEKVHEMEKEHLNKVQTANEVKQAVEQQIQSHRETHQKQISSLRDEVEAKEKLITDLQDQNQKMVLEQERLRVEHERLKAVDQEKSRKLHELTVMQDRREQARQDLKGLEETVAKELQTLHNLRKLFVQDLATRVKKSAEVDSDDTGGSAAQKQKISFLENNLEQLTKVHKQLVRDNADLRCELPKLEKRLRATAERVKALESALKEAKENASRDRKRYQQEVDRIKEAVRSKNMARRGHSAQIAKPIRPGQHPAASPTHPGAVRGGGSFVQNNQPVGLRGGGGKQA

Question: How did the percent of LC coprecipitated [1] turn out when “kinesin light chain splice form C (rat), HA-tagged (from UniProt P37285 1-560) (natural protein)” was run?
Answer: The percent of LC coprecipitated was 50%.

Question: Which results are given for “HC coexpressed with the LC deletion mutant L176 (from UniProt Q2PQA9 1-963; P37285 1-176) (complex)”?
Answer: percent of HC bound to MTs [2]: 50%; percent of L176 bound to MTs [2]: 20%

Question: Which percent of the HC construct sedimented with MTs [2] does the source give for “HC deletion mutant H891 coexpressed with LC (from UniProt Q2PQA9 1-891; P37285 1-560) (complex)” here?
Answer: The percent of the HC construct sedimented with MTs was 50 to 95%.

Question: For “NH2-terminal 420 amino acids of human conventional kinesin heavy chain (from UniProt P33176 1-420) (domain or fragment)”, which tubulin concentration at half-maximal binding [2] is on record?
Answer: Its tubulin concentration at half-maximal binding is 0.15 mM.

Question: “HC deletion mutant H810 coexpressed with LC (from UniProt Q2PQA9 1-810; P37285 1-560) (complex)” was tested. Which percent of the HC construct sedimented with MTs [2] did it give?
Answer: Its percent of the HC construct sedimented with MTs is 90%.
